To fix the notation:
T1: recombinant extracellular domain of the predominant human CD22-beta isoform (CD22-ECD) (human, UniProt P20273 20-687, CHO-expressed glycoprotein. Capture on an SA chip implies biotinylation, but the patent does not state it for SPR.)
T1 construct: Expressed in CHO-3E7 cells, IMAC and SEC purified, monomeric fraction; Results say it was immobilized onto a CM5 dextran chip; also called human CD22-ECD; hCD22 ecto-domain
T1 sequence: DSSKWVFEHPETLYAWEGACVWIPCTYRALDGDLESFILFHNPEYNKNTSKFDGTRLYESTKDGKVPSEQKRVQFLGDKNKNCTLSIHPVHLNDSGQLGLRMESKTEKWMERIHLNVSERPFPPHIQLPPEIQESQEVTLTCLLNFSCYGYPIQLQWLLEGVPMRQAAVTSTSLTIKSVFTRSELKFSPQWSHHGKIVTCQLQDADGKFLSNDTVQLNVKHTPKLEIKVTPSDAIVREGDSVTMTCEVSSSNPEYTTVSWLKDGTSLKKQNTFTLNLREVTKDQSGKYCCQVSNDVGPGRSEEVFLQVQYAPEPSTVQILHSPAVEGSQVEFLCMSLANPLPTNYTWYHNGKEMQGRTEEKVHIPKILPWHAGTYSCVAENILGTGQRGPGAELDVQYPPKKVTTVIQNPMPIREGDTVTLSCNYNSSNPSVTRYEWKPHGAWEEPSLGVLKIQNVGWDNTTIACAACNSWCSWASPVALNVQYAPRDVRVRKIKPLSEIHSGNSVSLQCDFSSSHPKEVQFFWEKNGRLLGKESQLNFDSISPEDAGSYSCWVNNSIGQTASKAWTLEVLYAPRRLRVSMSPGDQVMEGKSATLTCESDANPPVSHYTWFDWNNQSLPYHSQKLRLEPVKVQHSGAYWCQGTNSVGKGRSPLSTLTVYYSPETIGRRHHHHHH

B1: hCD22pas-33 (VHH)
VHH: QVKLEESGGGLVQPGGSLRLSCTVSGFTLDSYVMGWFRQAPGKEREAVSCISSSDGVTYYADSVKGRFTISRDNAKNTYLQMNSLKPEDTAIYYCAVDKPFYDGGYLYTCPVDFDSWGQGIQVTVSS
modifications: single biotin at the VHH C-terminal (biotinylation signal sequence)
notes: llama VHH, expressed in E. coli TG1, IMAC purified, monomeric SEC fraction; also called VHH # 7
B2: hCD221ug-93 (VHH)
VHH: QVKLEESGGGLVQAGGSLRLSCAASGSTFSSSVMNWYRQAPGKQRELVAVITSSGSTHYADSVKGRFTISRDNAKNTVNLQMNSLKPEDTAVYYCNAQYGRRSDWGQGTQVTVSS
modifications: single biotin at the VHH C-terminal (biotinylation signal sequence)
notes: llama VHH, expressed in E. coli TG1, IMAC purified, monomeric SEC fraction; also called VHH # 11
B3: hCD221ug-74 (VHH)
VHH: QVKLEESGGGLVQAGGSLRLSCAGSGFTFDDYAMGWFRQAPGKEREVVSCMGSSDGATYYADSVKGRFTISRDNAKNTVYLQMNSLKPEDTAIYYCAVDKPFYDGGYRYTCPVDFGSWGQGTQVTVSS
modifications: single biotin at the VHH C-terminal (biotinylation signal sequence)
notes: llama VHH, expressed in E. coli TG1, IMAC purified, monomeric SEC fraction; also called VHH # 3
B4: hCD22pas-16 (VHH)
VHH: QVQLVESGGGLVQAGGSLRLSCAASGSTFSLKAMAWYRQAPGKQRERVGVINSDGSYTTDAASVQGRFTISRDNAKNTVYLQMNSLKPEDTAVYYCNTMPPWPWGQGTQVTVSS
modifications: single biotin at the VHH C-terminal (biotinylation signal sequence)
notes: llama VHH, expressed in E. coli TG1, IMAC purified, monomeric SEC fraction; also called VHH # 20
B5: hCD22pas-79 (VHH)
VHH: QVKLEESGGGLVQPGGSLRLSCTVSGRTSSVYGMAWFRQTPGKEREFVAAMSWSGGPTYFADSVKGRFGSSRDNAKNTVYLQMNGLRPEDTAVYYCAVRIRRTLLEPLTKETLYDYWGQGTQVTVSS
modifications: single biotin at the VHH C-terminal (biotinylation signal sequence)
notes: llama VHH, expressed in E. coli TG1, IMAC purified, monomeric SEC fraction; also called VHH # 18
B6: hCD221ug-77 (VHH)
VHH: QVKLEESGGGLVQPGGSLRLSCADSGSIFRIAVMNWYRQAPGKERELVAVITSGGETHYAASVKGRFTISRDNAKNTMYLQMNSLKPEDTAVYYCNAKWGQYEYWGQGTQVTVSS
modifications: single biotin at the VHH C-terminal (biotinylation signal sequence)
notes: llama VHH, expressed in E. coli TG1, IMAC purified, monomeric SEC fraction; also called VHH # 8
B7: hCD221ug-87 (VHH)
VHH: B6 VHH with K3Q, E5V, Q101R, Y102D
modifications: single biotin at the VHH C-terminal (biotinylation signal sequence)
notes: llama VHH, expressed in E. coli TG1, IMAC purified, monomeric SEC fraction; also called VHH # 9
B8: hCD221ug-75 (VHH)
VHH: B6 VHH with D24G, E56D, M82I, W99Y, Q101R, Y102D, T109A
modifications: single biotin at the VHH C-terminal (biotinylation signal sequence)
notes: llama VHH, expressed in E. coli TG1, IMAC purified, monomeric SEC fraction; also called VHH # 10
B9: hCD221ug-14 (VHH)
VHH: QVKLEESGGGLVQAGGSLRLSCAVSGRIFRSYVLGWFRQAPGKERELVARIGWSDTYYADSVKGRFTISRDNAKNTVDLQMNSLKPEDTAVYYCAANSPPYGPQRDEFDYWGQGTQVTVSS
modifications: single biotin at the VHH C-terminal (biotinylation signal sequence)
notes: llama VHH, expressed in E. coli TG1, IMAC purified, monomeric SEC fraction; also called VHH # 16; 9-hCD22 1ug-14
B10: hCD221ug-6 (VHH)
VHH: QVQLVESGGGVVRPGDSLRLSCTVSGFTLDYYVMGWFRQAPGKEREVVSCISSSDGVTYYADSVKGRFTISRDNAKNTVYLQMNSLKPEDTAIYYCAVDKPFYDGGYYYTCPVDFDSWGQGTQVTVSS
modifications: single biotin at the VHH C-terminal (biotinylation signal sequence)
notes: llama VHH, expressed in E. coli TG1, IMAC purified, monomeric SEC fraction; also called VHH # 5
B11: hCD22100ng-2 (VHH)
VHH: QVKLEESGGGLVQPGGSLRLSCTVSGVTFDYYVMGWFRQAPGKEREVVSCMRNSDGVTYYADSVKGRFTISRDNAKNTVYLQMNSLKPDDTAIYYCAVDKPFYDGGNYYTCPVDFDSWGQGTQVTVSS
modifications: single biotin at the VHH C-terminal (biotinylation signal sequence)
notes: llama VHH, expressed in E. coli TG1, IMAC purified, monomeric SEC fraction; also called VHH # 2
B12: hCD22pas-10 (VHH)
VHH: B10 VHH with V11L, R13Q, L29S, V33A, V47A, K65R, Q82E, Y108L
modifications: single biotin at the VHH C-terminal (biotinylation signal sequence)
notes: llama VHH, expressed in E. coli TG1, IMAC purified, monomeric SEC fraction; also called VHH # 6
B13: hCD22100ng-66 (VHH)
VHH: B10 VHH with V11L, R13Q, D16G, T28S, V57A, A61P, N77K, S85A, Y107S, D116G
modifications: single biotin at the VHH C-terminal (biotinylation signal sequence)
notes: llama VHH, expressed in E. coli TG1, IMAC purified, monomeric SEC fraction; also called VHH # 4

Where a chain is given by its changes, count along the chain named.

For this assay, the target named is T1, recombinant extracellular domain of the …. In words: SPR, Biacore T200, VHH over immobilized CD22-ECD. On the procedure: For surface Plasmon resonance, 21 selected VHHs were passed though size exclusion columns, superdex 75 (GE Healthcare), respectively, in 10 mM HEPES, pH 7.4, containing 150 mM NaCl, 3 mM EDTA, monomeric sdAb fractions were collected and protein concentrations were determined by measuring absorbance at 280 nm (A280). Analysis were performed with Biacore T200 instrument (GE Healthcare). All measurements were carried out at 25° C. in 10 mM HEPES, pH 7.4, containing 150 mM NaCl, 3 mM EDTA and 0.005% surfactant P20 (GE Healthcare). Approximately 1919 RUs of the recombinant monomeric CD22-ECD (obtained after SEC purification of the CD22-ECD) were captured on SA sensor chip (GE Healthcare) at a flow rate of 5 uL/min. Various concentration of the monomeric VHHs were injected over CD22-ECD surface, respectively using an SA surface as a reference at a flow rate of 40 µL/min. Surfaces were generated by washing with running buffer. Data were analysed with BIAevaluation 4.1 software.
The monomeric fraction of all 21 VHHs were used for SPR experiment where the human CD22-ECD was immobilized onto the CM5 dextran chip and various VHH concentration (0.6-400 nM) were passed over the sensor chip. […] All of the data collected fit a 1:1 binding model.
(SPR reads the build-up and loss of mass on a sensor chip optically.)
As usually defined, the Kd is the concentration at which binding is half-saturated. Broadly, the koff is the first-order rate constant of dissociation. In general, kon refers to the second-order rate constant of association. Turning to B1, the Kd is 2.6 nM, the koff worked out at 0.00014 s⁻¹ and the kon was determined as 54000 M⁻¹ s⁻¹.

On to B2, for which the Kd is 7.7 nM, the dissociation rate constant (koff) worked out at 0.0105 s⁻¹ and the kon amounted to 1.36e+06 M⁻¹ s⁻¹.

B3: the Kd stood at 7.08 nM, the koff worked out at 0.000655 s⁻¹ and the kon amounted to 92500 M⁻¹ s⁻¹.

Take B4: the Kd amounted to 2.75 nM, the koff came to 0.001 s⁻¹ and the kon worked out at 365000 M⁻¹ s⁻¹.

For B5, the Kd was 7.72 nM, the koff came to 0.00397 s⁻¹ and the kon is 514000 M⁻¹ s⁻¹.

Consider B6, for which the Kd came to 4.77 nM, the koff was determined as 0.00262 s⁻¹ and the association rate constant (kon) was 550000 M⁻¹ s⁻¹.

For B7, the dissociation constant (Kd) came to 0.647 nM, the koff was 0.000797 s⁻¹ and the kon worked out at 1.23e+06 M⁻¹ s⁻¹.

As to B8, the Kd was found to be 0.865 nM, the koff is 0.00121 s⁻¹ and the kon amounted to 1.4e+06 M⁻¹ s⁻¹.

Regarding B9, the Kd is 0.00684 nM, the koff amounted to 2.1e-05 s⁻¹ and the kon was determined as 3.07e+06 M⁻¹ s⁻¹.

Consider B10, for which the Kd is 2.41 nM, the koff is 0.000129 s⁻¹ and the association rate constant (kon) worked out at 53600 M⁻¹ s⁻¹.

Take B11: the Kd was 2.78 nM, the koff came out at 0.00013 s⁻¹ and the on-rate constant (kon) is 46800 M⁻¹ s⁻¹.

With B12, the Kd was 19 nM, the koff worked out at 0.00289 s⁻¹ and the kon stood at 152000 M⁻¹ s⁻¹.

In the case of B13, the Kd is 0.924 nM, the koff came out at 0.000134 s⁻¹ and the kon turned out to be 145000 M⁻¹ s⁻¹.

For the origin of these results see patent US20230265185A1 (NATIONAL RESEARCH COUNCIL OF CANADA, published 2023).
